Paper PMC7757244

Biological target: Mut FcγRIIIa (human) (UniProt P08637)
Test: SPR

Sequence of UniProt P08637 (P08637 17-254): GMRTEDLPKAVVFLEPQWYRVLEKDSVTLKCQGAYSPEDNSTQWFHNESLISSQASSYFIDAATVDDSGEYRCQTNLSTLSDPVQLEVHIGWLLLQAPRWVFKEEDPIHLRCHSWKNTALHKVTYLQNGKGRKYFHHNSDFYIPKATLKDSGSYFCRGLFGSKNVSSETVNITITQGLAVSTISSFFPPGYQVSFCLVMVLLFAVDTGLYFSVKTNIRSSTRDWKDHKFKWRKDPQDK

| Substance | Kd [nM] | koff [s⁻¹] | kon [M⁻¹ s⁻¹] |
| --- | --- | --- | --- |
| ExpiCHO-Rituximab (antibody) | 2030 | 0.0803 | 39900 |
| Expi293-Rituximab (antibody) | 1380 | 0.0544 | 39600 |
| ExpiCHO-Trastuzumab (antibody) | 2520 | 0.0893 | 36200 |
| Expi293-Trastuzumab (antibody) | 1950 | 0.0583 | – |
